“Also recorded” adds a separate entry of the source.
Tested on: RBC
Test: Binding to fresh RBC diluted 2500 times, flow cytometry
Settings: 20 μg ml^−1, FIG. 6f
Experimental: Similarly, fresh RBC cell was diluted 2500 times, then it was incubated with 20 μg ml^−1 isotype control (human IgG1), hu56di-SIRPα, hu56di-CV1, SIRPα-Fc IgG1 and AB6.12 IgG1, respectively. The results were shown in FIG. 6f, in which serial numbers of 1, 2, 3, 4 and 5 correspond to isotype control, hu56di-SIRPα, hu56di-CV1, SIRPα-Fc IgG1 and AB6.12 IgG1.

B1: hu56di-CV1: heterodimer of hu56di-Fc9 and CV1-Fc6, Group 14 (protein)
chain 1: QVQLVESGGGLVQPGGSLRLSCAASGKMSSRRCMAWFRQAPGKERERVAKLLTTSGSTYLADSVKGRFTISRDNSKNTVYLQMNSLRAEDTAVYYCAADSFEDPTCTLVTSSGAFQYWGQGTLVTVSSGAPQVQLVESGGGLVQPGGSLRLSCAASGKMSSRRCMAWFRQAPGKERERVAKLLTTSGSTYLADSVKGRFTISRDNSKNTVYLQMNSLRAEDTAVYYCAADSFEDPTCTLVTSSGAFQYWGQGTLVTVSSEPKSSDKTHTCPPCPAPELLGGPSVFLFPPKPKDTLMISRTPEVTCVVVDVSHEDPEVKFNWYVDGVEVHNAKTKPREEQYNSTYRVVSVLTVLHQDWLNGKEYKCKVSNKALPAPIEKTISKAKGQPREPQVYTLPPCRDELTKNQVSLWCLVKGFYPSDIAVEWESNGQPENNYKTTPPVLDSDGSFFLYSALTVDKSRWQQGNVFSCSVMHEALHNHYTQKSLSLSPGK
chain 2: EEELQIIQPDKSVLVAAGETATLRCTITSLFPVGPIQWFRGAGPGRVLIYNQRQGPFPRVTTVSDTTKRNNMDFSIRIGNITPADAGTYYCIKFRKGSPDDVEFKSGAGTELSVRAKPSGGGGSDKTHTCPPCPAPELLGGPSVFLFPPKPKDTLMISRTPEVTCVVVDVSHEDPEVKFNWYVDGVEVHNAKTKPREEQYNSTYRVVSVLTVLHQDWLNGKEYKCKVSNKALPAPIEKTISKAKGQPREPQVYTLPPSRDELTKNQVSLSCGVKGFYPSDIAVEWESNGQPENNYKTTPPVLDSDGSFKLASKLTVDKSRWQQGNVFSCSVMHEALHNHYTQKSLSLSPGK
B1 was tested, and the “binding to RBC” value was “stronger binding to RBC than hu56di-SIRPα; also recorded: comparable binding to RBC with AB6.12 IgG1”.

— patent publication US11529425B2, “Immunoconjugates comprising signal regulatory protein alpha” (DINGFU BIOTARGET CO., LTD., priority 2017, dated 2022)
